Assay [1] concerns the target T1, Recombinant human twin strep-tagged ROR2 extracellular domain (human, UniProt Q01974 34-403).
T1 construct: extracellular domain; also called strep-tagged human ROR2; recombinant, purified hROR2
Nature of the assay: ELISA on coated twin strep-tagged hROR2. The procedure: (§1) Each well of a 96-well plate was coated with 100 μL of 2 μg/mL strep-tagged human ROR1 or ROR2 (from Example 5) in 0.1 M bicarbonate coating buffer (pH 9.6), and incubated for 12 h at 4° C.

In assay [2] the target is T2, StrepII-tagged human ROR1-extracellular domain (human, UniProt Q01973 30-406).
T2 construct: also called strep-tagged human ROR1; recombinant, purified hROR1
T2 sequence (Q01973 other isoform, or with tags, fused parts or gaps): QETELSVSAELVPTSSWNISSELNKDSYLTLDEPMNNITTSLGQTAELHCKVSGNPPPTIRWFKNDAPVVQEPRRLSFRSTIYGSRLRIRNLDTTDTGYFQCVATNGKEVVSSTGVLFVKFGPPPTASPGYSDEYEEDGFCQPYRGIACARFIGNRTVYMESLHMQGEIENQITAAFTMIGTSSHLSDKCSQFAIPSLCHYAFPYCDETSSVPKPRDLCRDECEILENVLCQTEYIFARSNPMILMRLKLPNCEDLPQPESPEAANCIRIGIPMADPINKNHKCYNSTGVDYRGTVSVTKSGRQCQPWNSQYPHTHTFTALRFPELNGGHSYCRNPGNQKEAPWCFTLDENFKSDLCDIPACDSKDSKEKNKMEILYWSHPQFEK
Nature of the assay: ELISA on coated strep-tagged hROR1, detected with anti-human Fc-gamma HRP. How it is done: as §1
(In an ELISA, binding on a coated surface is turned into a signal by an enzyme label.)

In assay [3] the target is T3, human ROR1 (hROR1) on the cell surface (human, UniProt Q01973 30-937).
T3 construct: whole, on cells; Endogenous on the human lines 697, MDA-MB-468, HS-578T, A549 and HT-29; ectopically expressed on murine EMT-6 cells (clone 14); also called full-length ROR1 (NP_005003.2)
T3 sequence (Q01973 30-937): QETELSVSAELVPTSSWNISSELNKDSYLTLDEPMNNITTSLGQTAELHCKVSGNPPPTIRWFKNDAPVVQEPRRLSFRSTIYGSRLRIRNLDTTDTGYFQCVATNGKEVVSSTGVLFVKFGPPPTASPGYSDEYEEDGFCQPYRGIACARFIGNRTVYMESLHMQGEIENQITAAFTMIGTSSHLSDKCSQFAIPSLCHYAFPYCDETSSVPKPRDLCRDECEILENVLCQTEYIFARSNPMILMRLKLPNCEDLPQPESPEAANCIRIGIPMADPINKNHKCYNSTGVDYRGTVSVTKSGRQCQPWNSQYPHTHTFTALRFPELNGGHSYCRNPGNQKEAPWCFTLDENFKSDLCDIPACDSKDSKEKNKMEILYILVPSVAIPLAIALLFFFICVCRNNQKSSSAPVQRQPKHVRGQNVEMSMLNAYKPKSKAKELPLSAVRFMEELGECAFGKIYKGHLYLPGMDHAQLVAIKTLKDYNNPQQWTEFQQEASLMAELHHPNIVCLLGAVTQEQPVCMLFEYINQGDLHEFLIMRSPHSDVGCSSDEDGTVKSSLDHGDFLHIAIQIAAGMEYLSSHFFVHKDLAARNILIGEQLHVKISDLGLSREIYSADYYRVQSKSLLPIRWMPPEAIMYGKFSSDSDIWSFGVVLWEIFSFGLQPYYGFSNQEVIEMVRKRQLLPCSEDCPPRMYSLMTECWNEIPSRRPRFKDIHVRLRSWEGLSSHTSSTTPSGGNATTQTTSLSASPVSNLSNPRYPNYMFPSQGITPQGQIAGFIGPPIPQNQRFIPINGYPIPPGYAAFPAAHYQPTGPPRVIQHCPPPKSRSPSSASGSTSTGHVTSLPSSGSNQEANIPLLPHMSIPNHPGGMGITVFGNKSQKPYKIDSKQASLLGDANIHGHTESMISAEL
Nature of the assay: flow cytometry on human cancer cell lines, 2A2 at 2 µg/mL. On the technique in general: In flow cytometry, cells or beads pass a laser one at a time.

T1 sequence (Q01974 other isoform, or with tags, fused parts or gaps): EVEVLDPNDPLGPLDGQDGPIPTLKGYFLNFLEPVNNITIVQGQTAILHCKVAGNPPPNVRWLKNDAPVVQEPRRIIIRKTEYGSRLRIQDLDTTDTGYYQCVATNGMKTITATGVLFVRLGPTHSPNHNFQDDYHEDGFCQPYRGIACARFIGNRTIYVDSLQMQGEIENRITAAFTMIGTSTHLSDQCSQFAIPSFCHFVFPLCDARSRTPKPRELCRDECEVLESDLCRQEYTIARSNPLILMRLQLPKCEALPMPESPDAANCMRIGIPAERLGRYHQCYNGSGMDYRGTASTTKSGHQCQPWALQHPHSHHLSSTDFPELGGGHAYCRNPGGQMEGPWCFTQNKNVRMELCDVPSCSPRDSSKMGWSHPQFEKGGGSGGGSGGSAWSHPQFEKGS

B1: XBR1-402 (mAb031) (antibody, human IgG1, V domains shown)
VH: QEQQKESGGGLFKPTDTLTLTCTASGFDISSYYMSWVRQAPGNGLEWIGAIGISGNAYYASWAKSRSTITRNTNLNTVTLKMTSLTAADTATYFCARDHPTYGMDLWGPGTLVTVSS
VL: SYELTQLPSVSVSLGQTARITCEGNNIGSKAVHWYQQKPGLAPGLLIYDDDERPSGVPDRFSGSNSGDTATLTISGAQAGDEADYYCQVWDSSAYVFGGGTQLTVTG
notes: Chimeric rabbit/human IgG1, lambda; not shown: Strep tag
B1: the binding result was “no binding” in assay [1] and “binds” in assay [2].

B2: ERR1-301 (mAb027) (antibody, human IgG1, V domains shown)
VH: QEQLEESGGGLVTPGGSLTLTCTASGFTISTYHMSWVRQAPGKGLEWIGSIYAGSGSTYYASWVNGRFTISSNTTQNTVSLQMNSLTVADTATYFCARDHPSYGMDLWGPGTLVTVSS
VL: SYELTQLPSVSVSLGQTARITCGGNSIGSKAVNWYQQKPGLAPGLLIYDDDERPSGVPDRFSASNSGDTATLTISGAQAEDEADYYCQLWDSSAVAYVFGGGTQLTVTG
notes: as for B1
Turning to B2, the binding result is reported as “no binding” in assay [1] and “binds” in assay [2].

B3: ERR1-Top43 (mAb036) (antibody, human IgG1, V domains shown)
VH: QSLEESGGRLVTPGTPLTLTCTVSGFSLSSYWMSWVRQAPGKGLEWIGAIYGSGNTYYASWAKGRFTISKTSTTVDLKITSPTTEDTATYFCARDVHSTATDLWGPGTLVTISS
VL: SYELTQLPSVSVSLGQTARITCGGNNIGSKAVNWYQQKPGLAPGLLIYNDDERPSGVPDRFSGSNSGDTATLTISGAQAGDEADYYCQLWDSSAGAYVFGGGTQLTVTG
notes: as for B1
On to B3, for which the values for the binding result in assay [1] and in assay [2] were “no binding” and “binds”, respectively.

B4: ERR1-403 (mAb035) (antibody, human IgG1, V domains shown)
VH: QEQLKESGRGLVQPGGSLKLSCKASGFDFSGWYMTWVRQAPGKGLEWIGTIGTTKGRTYYASWVNGRFTISSDNAQNTVDLQMNSLTAADRATYFCVRGSDYFDLWGPGTLVTISS
VL: SYELTQLPSVSVSLGQTARITCGGNSIGSKAVNWYQQKPGLAPGLLIYDDDERPSGVPARFSGSNSGDTATLTISGAQAGDEADYYCQLWDSSAGAYVFGGGTQLTVTG
notes: as for B1
With B4, the binding result in assay [1] is listed as “no binding”; in assay [2] it was “binds”.

B5: ERR1-324 (mAb034) (antibody, human IgG1)
heavy: not shown
light: ELVLTQTPSPVSAAVGGTVTINCQASQSVYGNNELAWYQQKPGQPPKLLIYRASILTSGVPSRFKGSGSGTQFTLTISNVQREDAATYYCLGGYVSQSYRAAFGGGTELEILRTVAAPSVFIFPPSDEQLKSGTASVVCLLNNFYPREAKVQWKVDNALQSGNSQESVTEQDSKDSTYSLSSTLTLSKADYEKHKVYACEVTHQGLSSPVTKSFNRGECGGGGGSLPETG
notes: Chimeric rabbit/human IgG1, kappa; not shown: Strep tag
In the case of B5, the binding result in assay [1] is given as “no binding”; in assay [2], “binds”.

B6: 2A2 (mAb066) (antibody, human IgG1)
heavy: not shown
light: DIVMTQSQKIMSTTVGDRVSITCKASQNVDAAVAWYQQKPGQSPKLLIYSASNRYTGVPDRFTGSGSGTDFTLTISNMQSEDLADYFCQQYDIYPYTFGGGTKLEIKRTVAAPSVFIFPPSDEQLKSGTASVVCLLNNFYPREAKVQWKVDNALQSGNSQESVTEQDSKDSTYSLSSTLTLSKADYEKHKVYACEVTHQGLSSPVTKSFNRGECGGGGGSLPETG
notes: IgG with human IgG1 and kappa constant regions; also called anti-human ROR1 antibody 2A2; not shown: Strep tag
Regarding B6, in assay [3], the binding result is reported as “binds”.

B7: ERR1-306 (mAb033) (antibody, human IgG1, V domains shown)
VH: QEQLKESGGGLVQPGGSLKLSCKASGFDLSNYGVSWVRQAPGKGLEWIGYIDPTFDYTYYASWVNGRFSISRENTQNTVSLQINSLTPADTATYFCARWVYGVDDYGDGNWLDLWGQGTLVTISS
VL: QFVLTQSPSVSAALGASAKLTCTLSSAHKTYTIDWYQQQQGEAPRYLMELKSDGSYTKGTGVPDRFSGSSSGADRYLIIPSVQADDEADYYCGTDYSGGYVFGGGTQLTVTG
notes: as for B1
B7: in assay [1], the binding result is given as “no binding”.

These data come from patent publication US20210139579A1 (NBE THERAPEUTICS, published 2021).
